Consider one substance from doi:10.1101/2021.09.28.462122.

The test deals with NADP+-specific glutamate dehydrogenase from Aspergillus terreus (Aspergillus terreus). The test is described as follows: crystal structure.

By stoichiometry N is commonly meant a count of units in the complex or per binding partner. In the case of “NADP+-specific glutamate dehydrogenase from Aspergillus terreus (enzyme)”, the stoichiometry N is 6.
